In series [1] the target is T1, Nuclease K.
T1 chain: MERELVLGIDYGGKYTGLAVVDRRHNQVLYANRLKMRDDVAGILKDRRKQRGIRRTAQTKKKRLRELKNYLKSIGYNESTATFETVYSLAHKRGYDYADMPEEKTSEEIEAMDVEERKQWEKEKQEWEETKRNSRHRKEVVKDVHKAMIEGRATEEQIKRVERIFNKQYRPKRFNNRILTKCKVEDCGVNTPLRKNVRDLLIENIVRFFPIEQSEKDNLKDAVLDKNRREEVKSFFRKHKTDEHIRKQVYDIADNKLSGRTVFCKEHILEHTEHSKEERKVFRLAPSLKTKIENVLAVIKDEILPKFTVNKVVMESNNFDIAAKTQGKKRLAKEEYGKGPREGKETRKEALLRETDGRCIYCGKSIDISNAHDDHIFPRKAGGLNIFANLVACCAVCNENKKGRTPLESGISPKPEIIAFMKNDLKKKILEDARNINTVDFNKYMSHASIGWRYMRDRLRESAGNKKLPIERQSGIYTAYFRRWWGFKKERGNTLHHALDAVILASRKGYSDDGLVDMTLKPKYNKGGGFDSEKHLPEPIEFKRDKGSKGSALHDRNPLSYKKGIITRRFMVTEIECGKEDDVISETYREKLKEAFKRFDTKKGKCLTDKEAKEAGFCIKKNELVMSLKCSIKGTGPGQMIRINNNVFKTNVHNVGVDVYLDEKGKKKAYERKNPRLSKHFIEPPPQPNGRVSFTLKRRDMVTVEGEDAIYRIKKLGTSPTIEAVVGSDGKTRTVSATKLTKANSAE
As to the kind of experiment: cell_activity; PAM NGG (AGG); HEK293T. The settings on record: tags: N-terminal SV40 NLS, C-terminal nucleoplasmin NLS.

The target of series [2] is T2, Nuclease K D582R/I53R/T734R (D582R,I53R,T734R).
T2 chain: T1 chain with I53R, D582R, T734R
As to the kind of experiment: cell_activity; PAM NGG; HEK293T. The settings on record: tags: N- and C-terminal NLS. The protocol:
(§1) This Example describes indel assessment on mammalian targets using nuclease variants of Nuclease K comprising two or more substitutions identified as increasing indel activity in Example 8. 71 combination Nuclease K variants were tested.
(§2) Each Nuclease K variant and RNA guide (see Table 19) was cloned as described in Example 8. HEK293T cells were further transfected, followed by NGS analysis, as described in Example 8. For each target, indel ratios, referring to the percentage of NGS reads comprising indels, were calculated for the reference Nuclease K (SEQ ID NO: 65) and for each Nuclease K variant. The indel ratios shown in Table 20 were calculated as the average of two bioreplicates, each of which contained two technical replicates.

The target in series [3] is T3, Nuclease K D582R/G42R (D582R,G42R).
T3 chain: T1 chain with G42R, D582R
As to the kind of experiment: cell_activity; PAM NGG; HEK293T. The settings on record: tags: N- and C-terminal NLS. The procedure: as §1, §2

Series [4] addresses T4, Nuclease A.
T4 chain: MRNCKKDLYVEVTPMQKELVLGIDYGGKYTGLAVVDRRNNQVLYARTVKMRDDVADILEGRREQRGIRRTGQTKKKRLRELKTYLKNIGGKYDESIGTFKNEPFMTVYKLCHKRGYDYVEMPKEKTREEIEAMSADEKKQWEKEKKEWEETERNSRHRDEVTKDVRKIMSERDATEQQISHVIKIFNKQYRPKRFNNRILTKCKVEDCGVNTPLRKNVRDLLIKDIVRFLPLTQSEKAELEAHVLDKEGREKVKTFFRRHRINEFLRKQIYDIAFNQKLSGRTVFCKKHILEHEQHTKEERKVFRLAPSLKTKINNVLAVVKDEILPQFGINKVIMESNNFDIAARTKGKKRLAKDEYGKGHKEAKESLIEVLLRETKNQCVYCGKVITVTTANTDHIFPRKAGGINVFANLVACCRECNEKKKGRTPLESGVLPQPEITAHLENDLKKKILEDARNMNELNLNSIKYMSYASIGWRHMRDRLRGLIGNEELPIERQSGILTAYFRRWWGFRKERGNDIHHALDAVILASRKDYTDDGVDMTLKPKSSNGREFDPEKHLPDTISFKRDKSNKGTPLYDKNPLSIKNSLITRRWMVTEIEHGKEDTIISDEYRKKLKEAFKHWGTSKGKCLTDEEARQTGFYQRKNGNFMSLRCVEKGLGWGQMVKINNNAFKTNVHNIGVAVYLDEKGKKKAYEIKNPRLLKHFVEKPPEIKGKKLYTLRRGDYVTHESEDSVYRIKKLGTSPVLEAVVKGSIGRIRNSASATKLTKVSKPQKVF
The series is described as follows: cell_activity; PAM NGG (GGG); HEK293T. The note with it: tags: N-terminal SV40 NLS, C-terminal XTEN linker + nucleoplasmin NLS. The protocol: (§3) Approximately 16 hours prior to transfection, 25,000 HEK293T cells in DMEM/10% FBS+Pen/Strep (D10 media) were plated into each well of a 96-well plate. On the day of transfection, the cells were 50-90% confluent. For each well to be transfected, a mixture of Lipofectamine 2000™ (ThermoFisher Scientific) and Opti-MEM™ (ThermoFisher Scientific) was prepared and incubated at room temperature for 5 minutes (Solution 1). After incubation, the Lipofectamine 2000™: Opti-MEM™ mixture was added to a separate mixture containing the CRISPR nuclease plasmid (NLS-tagged), RNA guide plasmid, and Opti-MEM™ (Solution 2). In the case of negative controls, the CRISPR nuclease plasmid was excluded. Solutions 1 and 2 were mixed by pipetting up and down, then incubated at room temperature for 25 minutes. Following incubation, the Solution 1 and 2 mixture was added dropwise to each well of a 96-well plate containing the cells. […]
(§4) Each Nuclease A variant and RNA guide (see Table 5) was cloned as described in Example 2. […] For each target, indel ratios, referring to the percentage of NGS reads comprising indels, were calculated for Nuclease A (SEQ ID NO: 1) and for each variant of Nuclease A. The indel ratios shown in Table 6 were calculated as the average of two bioreplicates, each of which contained two technical replicates.

The target in series [5] is T5, Nuclease A I67R/D568R/E706R.
T5 chain: T4 chain with I67R, D568R, E706R
The series is described as follows: cell_activity; PAM NGG (GGG); HEK293T. The note with it: tags: N-terminal SV40 NLS, C-terminal XTEN linker + nucleoplasmin NLS. The protocol: as §3, §4

These results are taken from patent US20260275311, “CRISPR NUCLEASE POLYPEPTIDES AND GENE EDITING SYSTEMS COMPRISING SUCH” (ARBOR BIOTECHNOLOGIES, INC., published 2026).

Where a chain is given by its changes, count along the chain named.

B1: Nuclease K VEGFA-T6 guide ; VEGFA-T6 target (ssRNA ; dsDNA)
RNA: UUUGCCCAUACUGGGGACCAGUUACAGUUAAGGCUCUGAAAAGAGCCUUAAUUGUAAAACGCCUAUACAGUGAAGGGAUAUACGCUUGGGUUUGUCCAGCCUGAGCCUCUAUGCCAGAAAUGGCGCCUUCAUCGUGGGUUAGGACAUUUAAAUUUAAAAACUAUUCAGCACUGUUUGCUCUUGUCAGCUUGGUGGCAGA
DNA 1: TTTGCCCATACTGGGGACCA
DNA 2: TGGTCCCCAGTATGGGCAAA
As to B1, the activity in series [1] is 0.009 indel ratio; in series [2] it was 0.097 indel ratio; in series [3], 0.153 indel ratio.

B2: Nuclease A EMX1-T7 guide ; EMX1-T7 target (ssRNA ; dsDNA)
RNA: CUUUAGCAAGGGACUAUUCAGUUACAGUUAAGGCUCUUUGGAAACAAAGAAGCCUUAAUUGUAAAACGCCUAUAUGGUAAAGUGAUGUACGUUUGGGUAUAUAUCGCCAGCCUGAACCUCUACGCCAGAAAUGGCAGCUUUAUCAUGGGUUAGGACGAUAUUUAAAAAACUUUCUGCGGCUUGCUUACUUUAGUAAGCUUUGUGGCUGAGGCAGAAUUCCUU
DNA 1: CTTTAGCAAGGGACTATTCA
DNA 2: TGAATAGTCCCTTGCTAAAG
With B2, the values for the activity in series [4] and in series [5] were 0.033 indel ratio and 0.337 indel ratio, respectively.
